Assay results reported in FireProtDB (doi:10.1021/bi992119u).

B1: Steroid Delta-isomerase, P07445 (parent)
chain: MNLPTAQEVQGLMARYIELVDVGDIEAIVQMYADDATVEDPFGQPPIHGREQIAAFYRQGLGGGKVRACLTGPVRASHNGCGAMPFRVEMVWNGQPCALDVIDVMRFDEHGRIQTMQAYWSEVNLSVREPQ

Variants of: B1
Conditions: Pseudomonas putida; pH 7; 25 °C; Urea; CD; Sodium phosphate 25 mM; reversible: yes; structure 1OH0; whole UniProt chain shown

Row | Variant | denaturant m value | denaturant midpoint (higher = more stable) | unfolding free energy
1 | MNLPTAQEVQGLMARYIELVDVGDIEAIVQMYADDATVEDPFGQPPIHGREQIAAFFRQGLGGGKVRACLTGPVRASHNGCGAMPFRVEMVWNGQPCALDVIDVMRFDEHGRIQTMQAYWSEVNLSVREPQ [Y57F] | 2.98 kcal/mol/M | 4.77 M | 20.8 kcal/mol
2 | MNLPTAQEVQGLMARYIELVDVGDIEAIVQMFADDATVEDPFGQPPIHGREQIAAFYRQGLGGGKVRACLTGPVRASHNGCGAMPFRVEMVWNGQPCALDLIDVMRFDEHGRIQTMQAYWSEVNLSVREPQ [Y32F V101L] | 2.52 kcal/mol/M | 4.45 M | 17.8 kcal/mol
3 | MNLPTAQEVQGLMARYIELVDVGDIEAIVQMFADDATVEDPFGQPPIHGREQIAAFFRQGLGGGKVRACLTGPVRASHNGCGAMPFRVEMVWNGQPCALDVIDVMRFDEHGRIQTMQAYWSEVNLSVREPQ [Y32F Y57F] | 3.05 kcal/mol/M | 5.81 M | 24.3 kcal/mol
4 | MNLPTAQEVQGLMARYIELVDVGDIEAIVQMYADDATVEDPFGQPPIHGREQIAAFYRQGLGGGKVRACLTGPVRASHNGCGAMPFRVEMVWNGQPCALDLIDVMRFDEHGRIQTMQAYWSEVNLSVREPQ [V101L] | 3.32 kcal/mol/M | 4.19 M | 20.5 kcal/mol
5 | MNLPTAQEVQGLMARFIELVDVGDIEAIVQMYADDATVEDPFGQPPIHGREQIAAFYRQGLGGGKVRACLTGPVRASHNGCGAMPFRVEMVWNGQPCALDVIDVMRFDEHGRIQTMQAYWSEVNLSVREPQ [Y16F] | 3.1 kcal/mol/M | 4.3 M | 19.9 kcal/mol
6 | MNLPTAQEVQGLMARYIELVDVGDIEAIVQMYADDATVEDPFGQPPIHGREQIAAFFRQGLGGGKVRACLTGPVRASHNGCGAMPFRVEMVWNGQPCALDLIDVMRFDEHGRIQTMQAYWSEVNLSVREPQ [Y57F V101L] | 2.31 kcal/mol/M | 4.25 M | 16.4 kcal/mol
7 | MNLPTAQEVQGLMARYIELVDVGDIEAIVQMFADDATVEDPFGQPPIHGREQIAAFYRQGLGGGKVRACLTGPVRASHNGCGAMPFRVEMVWNGQPCALDVIDVMRFDEHGRIQTMQAYWSEVNLSVREPQ [Y32F] | 3.23 kcal/mol/M | 5.49 M | 24.3 kcal/mol
